Assay results reported in patent US20230107034A1.
Like-named read-outs stand apart in the source and are kept apart here.

Experiments:
Assay in all cases: SPR
Ab 1-42 [1] = target: Ab 1-42 (UniProt P05067)
Ab 1-42 [2] = target: Ab 1-42 (UniProt P05067); remark: listed apart in the source
PFs (AB 1-42 proto) = PFs (AB 1-42 proto) (UniProt P05067)
monomer = monomer (UniProt P05067)
Sequence of monomer (P05067 672-713): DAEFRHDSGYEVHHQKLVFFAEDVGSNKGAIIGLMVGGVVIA

Sequence of Ab 1-42 (P05067 672-713): as above
Sequence of PFs (AB 1-42 proto) (P05067 672-713): as above

Row | koff (Ab 1-42 [1]) [s⁻¹] | koff (Ab 1-42 [2]) [s⁻¹] | koff (PFs (AB 1-42 proto)) [s⁻¹] | koff (monomer) [s⁻¹] | Substance
1 | 0.000505 | 0.000426 |  |  | BAPI
2 |  |  | 0.000144 | 0.718 | Aducanumab
